Results as given in patent US20250339531A1, “DUX4 POLYPEPTIDES AND NUCLEIC ACIDS FOR TREATING INFLAMMATORY AND AUTOIMMUNE CONDITIONS” (Fred Hutchinson Cancer Center, priority 2021, published 2025).
Entries after “also recorded” stand apart in the source; their conditions may differ.

B1: longCTDmL1dL2: longCTD with first (L)LxxL(L) motif disrupted and second deleted, SEQ ID NOS: 10 and 11 (protein)
chain: MDYKDHDGDYKDHDIDYKDDDDKPPKRMRREPKKKRKVGRAPAQAGGLCSAAPGGGHPAPSWVAFAHTGAWGTGLPAPHVPCAPGALPQGAFVSQAARAAPALQPSQAAPAEGISQPAPARGDFAYAAPAPPDGALSHPQAPRWPPHPGKSREDRDPQRDGLPGPCAVAQPGPAQAGPQGQGVLAPPTSQGSPWWGWGRGPQVAGAAWEPQAGAAPPPQPAPPDASASARQGQMQGIPAPSQALQEPAPWSALPCGLLAAEAAASPEFLQQAQPLLETEAPGELEASEEAASLEAPLSEEEYRA
B2: mouse Dux: mouse ortholog of human DUX4, SEQ ID NO:15, doxycycline inducible codon altered SEQ ID NO:16 (protein, listed as Mus musculus)
chain: MAEAGSPVGGSGVARESRRRRKTVWQAWQEQALLSTFKKKRYLSFKERKELAKRMGVSDCRIRVWFQNRRNRSGEEGHASKRSIRGSRRLASPQLQEELGSRPQGRGMRSSGRRPRTRLTSLQLRILGQAFERNPRPGFATREELARDTGLPEDTIHIWFQNRRARRRHRRGRPTAQDQDLLASQGSDGAPAGPEGREREGAQENLLPQEEAGSTGMDTSSPSDLPSFCGESQPFQVAQPRGAGQQEAPTRAGNAGSLEPLLDQLLDEVQVEEPAPAPLNLDGDPGGRVHEGSQESFWPQEEAGSTGMDTSSPSDSNSFCRESQPSQVAQPCGAGQEDARTQADSTGPLELLLLDQLLDEVQKEEHVPVPLDWGRNPGSREHEGSQDSLLPLEEAVNSGMDTSIPSIWPTFCRESQPPQVAQPSGPGQAQAPTQGGNTDPLELFLYQLLDEVQVEEHAPAPLNWDVDPGGRVHEGSWESFWPQEEAGSTGLDTSSPSDSNSFFRESKPSQVAQRRGAGQEDARTQADSTGPLELLLFDQLLDEVQKEEHVPAPLDWGRNPGSMEHEGSQDSLLPLEEAANSGRDTSIPSIWPAFCRKSQPPQVAQPSGPGQAQAPIQGGNTDPLELFLDQLLTEVQLEEQGPAPVNVEETWEQMDTTPDLPLTSEEYQTLLDML

Columns and labels:
STAT1 = test: Anti-FLAG co-immunoprecipitation and western blot for STAT1; assay type: binding, human; details: anti-FLAG IP from MB135 cells ± IFNG
Method: Centrifugation at 2500 rcf at 4° C. for 5 min pelleted the nuclei, supernatant was discarded, and nuclei resuspended in 1 mL IP buffer pH 7.4 (25 mM Tris-HCl pH 7.5, 175 mM NaCl, 1 mM EDTA, 0.2% NP-40, 5% glycerol) and incubated for 1 hour at 4° C. with rotation then spun at 21000 rcf for 10 minutes at 4° C. to pellet insoluble debris. Protein concentration was determined using the Pierce BCA Protein Assay Kit (ThermoFisher, 23225). An equivalent amount of protein per sample was pre-cleared with Dynabeads Protein G (Invitrogen) bound to mouse IgG (Abcam #131368) for 1 hour at 4° C. with rotation. FLAG-tagged constructs were then immunoprecipitated with Dynabeads Protein G beads coupled to mouse anti-FLAG M2 mAb (Sigma F3165) for 3 hours at 4° C. with rotation. Beads were washed 3× with 1 mL IP buffer and eluted by adding 2× NuPage LDS Sample Buffer (Thermo Fisher, diluted from 4× with PBS) to the beads and heating for 10 minutes at 70° C.
Antibodies against STAT1 [EPR4407] (ab109320), pSTAT1 Y701 [M135] (ab29045), pSTAT1 S727 [EPR3146] (ab109461), YBX1 [EP2708Y] (ab76149), PABPC1 (ab21060), hnRNPM [EPR13509 (B)] (ab177957), PRKDC [Y393] (ab32566), and HSP90AB1 [EPR16621] (ab203085) were purchased from Abcam. Antibodies against FLAG tag [M2] (F1804) and [M2] (F3146) were purchased from Sigma Aldrich. Antibodies against DDX3X [D19B4] (8192S), hnRNPK [R332] (4675S), TRIM28 [C42G12] […]

[1] = tested on: interferon-stimulated genes IFIH1, ISG20, CXCL9, and CD74; test: IFNG induction of interferon-stimulated genes, RT-qPCR in MB135 cells with doxycycline-inducible transgenes; assay type: cell-based, human; details: MB135 cells, doxycycline-induced transgene, continuous protocol, IFNG 16 h
Method: All myoblast experiments were conducted in immortalized MB135 or MB200 myoblast cell lines (isolated from a control or FSHD2 subject, respectively cultured in Ham's F-10 Nutrient Mix (Gibco) supplemented with 15% fetal bovine serum (Hyclone), 100 U/100 μg/ml penicillin/streptomycin (Gibco), 1 μM dexamethasone (Sigma), and 10 ng/ml recombinant human basic fibroblast growth factor (PeproTech). To differentiate the myoblasts to myotubes, media was changed to DMEM supplemented with 10 μg/ml insulin (Sigma) and 10 μg/ml transferrin (Sigma). Cell lines containing doxycycline-inducible transgenes were additionally cultured with 2 μg/mL puromycin (Sigma). Transgenes were induced with 1 μg/mL of doxycycline (Sigma) for 4 hours prior to other treatments for a total of 20 hrs. The Kitra-SRS cells (RRID:CVCL_YI69) were provided by Dr. H. Otani and Osaka University (Nakai et al., 2019) and were cultured in DMEM supplemented with 10% fetal bovine serum (Hyclone) and 100 U/100 μg/ml penicillin/streptomycin (Gibco). Biological replicates consisted of independent but parallel experiments, such as simultaneously stimulating three cell culture plates with IFNγ. Technical replicates consisted of repeat measurements of the same biological sample, such as loading the same biological sample in triplicate for analysis by RT-qPCR.
Myoblasts were transfected with either (final concentrations) 10 μM 2′,3′-cGAMP (Sigma Aldrich), 2 μg/mL poly(I:C) (Invitrogen), or 1 μg/mL 3′ppp-dsRNA RIG-I ligand (Dan Stetson Lab, UW) using Lipofectamine 2000 according to manufacturer's protocol, or were stimulated with 1000U IFNβ (PeproTech) or 200 ng/ml IFNγ (R+D Systems) by addition directly to cell culture medium. After 16 hours of immune stimulation, RNA was collected from cells using the NucleoSpin RNA Kit (Macherey-Nagel) according to manufacturer's instructions. RNA samples were quantified by nanodrop and 1 μg of RNA per sample was treated with DNase I Amplification Grade (Thermo Fisher), and then synthesized into cDNA using the Superscript IV First-Strand Synthesis System, including oligo dT primers (Invitrogen). qPCR was run in 384-well plates on an Applied Biosystems QuantStudio 6 Flex Real-Time PCR System (ABI) and analyzed in Microsoft Excel.

Molecule | co-immunoprecipitation with STAT1 / phosphorylated STAT1 (STAT1) | suppression of IFNG induction of ISGs (IFIH1, ISG20, CXCL9, CD74) [1] | suppression of IFNG induction of ISGs (IFIH1, ISG20, CXCL9, CD74) ([1]; listed as iDUX4-CTDmL1dL2) | suppression of IFNG induction of ISGs (IFIH1, ISG20, CXCL9, CD74) ([1]; listed as Dux) | suppression of IFNG induction of ISGs (IFIH1, ISG20, CXCL9, CD74) ([1]; listed as mouse DUX)
B1 | both show binding to STAT1; also recorded: STAT1 is associated | does not suppress any of the IFNG-induced ISG genes | did not block the panel of ISGs | – | –
B2 | confirmed the co-immunoprecipitation of STAT1 and both phosphorylated pSTAT1-Y701 and pSTAT1-S727 | completely blocked the IFNG induction of these ISG genes | – | repress the panel of ISGs even more robustly than the full-length or CTD portion of human DUX4 | completely blocked
